Test results from the Human Domainome abundance scans (Beltran et al. 2025).
± gives the uncertainty stated by the source.

B1: Chromodomain-helicase-DNA-binding protein 5, residues 411 to 463; numbered along this chain, Q8TDI0 (parent)
chain: EEDDHMEFCRVCKDGGELLCCDACPSSYHLHCLNPPLPEIPNGEWLCPRCTCP

Variants of: B1
Experiment: abundance fitness (aPCA) (normalised: wild type 0, dead -1); higher = more abundant; growth selection in yeast, the domain comes from the species named
Details: Homo sapiens

Variant | abundance fitness
N42W | -0.142 ± 0.092
E44T | 0.02 ± 0.056
E44Y | -0.232 ± 0.081
E44V | -0.105 ± 0.04
E44P | -0.071 ± 0.063
E44I | -0.156 ± 0.1
K13W | -0.299 ± 0.059
K13H | -0.265 ± 0.074
K13S | -0.309 ± 0.06
R49S | 0.04 ± 0.055
R49M | 0.017 ± 0.067
R49I | -0.305 ± 0.11
R49V | 0.033 ± 0.044
R49D | 0.101 ± 0.049
C32N | -0.395 ± 0.13
C32P | -0.638 ± 0.14
C32W | -0.967 ± 0.13
C32R | -1 ± 0.083
C32F | -0.758 ± 0.21
C32Q | -0.72 ± 0.047
C32Y | -0.846 ± 0.18
D4V | -0.14 ± 0.042
D4C | 0.203 ± 0.066

Variant | abundance fitness
D4Y | 0.252 ± 0.077
D4G | -0.425 ± 0.045
D4P | 0.024 ± 0.041
D4N | 0.288 ± 0.043
D14H | -0.037 ± 0.11
D14M | -0.051 ± 0.09
D14I | -0.519 ± 0.15
D14L | -0.153 ± 0.053
S26W | -0.37 ± 0.083
S26T | 0.002 ± 0.051
S26Q | -0.387 ± 0.095
S26G | -0.036 ± 0.073
L46I | 0.116 ± 0.093
L46A | -0.027 ± 0.07
L46Y | -0.115 ± 0.093
L46C | 0.088 ± 0.096
L46P | -0.559 ± 0.12
E17Q | 0.032 ± 0.068
E17V | -0.228 ± 0.05
E17Y | -0.272 ± 0.059
E17G | -0.171 ± 0.068
E17D | -0.276 ± 0.074
E17R | -0.187 ± 0.053

Variant | abundance fitness
E17K | 0.007 ± 0.068
C9G | -0.687 ± 0.068
C9Q | -0.771 ± 0.087
C9P | -0.94 ± 0.13
F8K | -0.409 ± 0.12
F8A | -0.017 ± 0.066
F8S | -0.099 ± 0.073
F8W | -0.346 ± 0.083
F8T | 0.023 ± 0.077
C24Q | -1.11 ± 0.28
C24I | -0.886 ± 0.3
C24E | -0.564 ± 0.11
C24P | -0.791 ± 0.24
L18C | -0.288 ± 0.14
H31W | -0.361 ± 0.11
H31V | -0.268 ± 0.084
H31Q | -0.436 ± 0.15
H31G | 0.089 ± 0.079
E2Q | -0.224 ± 0.14
E2K | -0.157 ± 0.14
D3T | 0.205 ± 0.05
D3Q | 0.105 ± 0.047
D3G | 0.105 ± 0.045

Variant | abundance fitness
D3N | 0.168 ± 0.069
P35L | -0.315 ± 0.071
P35D | -0.246 ± 0.079
P35W | -0.404 ± 0.052
P35V | -0.145 ± 0.07
P35A | -0.299 ± 0.057
C21I | -1.13 ± 0.2
C21T | -1 ± 0.14
C21W | -0.958 ± 0.071
C21P | -0.483 ± 0.086
C21K | -0.641 ± 0.088
Y28D | -0.405 ± 0.076
Y28V | -0.428 ± 0.064
Y28G | -0.536 ± 0.059
Y28W | -0.188 ± 0.047
Y28K | -0.481 ± 0.05
P25W | -0.067 ± 0.072
P25V | 0.03 ± 0.076
P25R | 0.087 ± 0.063
P25N | -0.025 ± 0.079
P25G | 0.085 ± 0.067
P25F | -0.094 ± 0.087
P25Q | -0.118 ± 0.089

Variant | abundance fitness
P38I | -0.564 ± 0.29
P38S | -0.13 ± 0.08
P38Y | 0.17 ± 0.19
C52P | 0.11 ± 0.053
C52S | 0.138 ± 0.061
C52H | 0.189 ± 0.1
C52L | 0.018 ± 0.049
C52D | 0.262 ± 0.085
C52R | -0.026 ± 0.045
C52I | -0.239 ± 0.099
C52M | 0.021 ± 0.053
I40Y | -0.059 ± 0.33
I40R | -0.121 ± 0.097
I40C | 0.116 ± 0.1
I40K | -0.104 ± 0.18
I40V | -0.027 ± 0.11
I40S | -0.058 ± 0.13
I40M | -0.112 ± 0.14
E1D | -0.455 ± 0.085
E1C | -0.893 ± 0.47
E1K | 0.044 ± 0.13
E1R | -0.554 ± 0.16
E39V | 0.025 ± 0.068

Variant | abundance fitness
E39W | -0.617 ± 0.24
E39L | -0.418 ± 0.13
E39F | -0.235 ± 0.27
E39P | 0.139 ± 0.12
E39K | -0.104 ± 0.12
L30E | -0.142 ± 0.078
L30F | -0.06 ± 0.044
L30I | -0.002 ± 0.045
L30K | -0.043 ± 0.071
L30A | 0.072 ± 0.061
L30S | 0.02 ± 0.055
A23W | -0.043 ± 0.072
A23S | 0.301 ± 0.1
A23R | -0.022 ± 0.088
A23Q | 0.305 ± 0.13
A23Y | 0.193 ± 0.074
A23M | -0.324 ± 0.13
D22P | 0.008 ± 0.055
D22A | 0.05 ± 0.045
D22E | 0.061 ± 0.077
D22K | 0.108 ± 0.052
D22Q | 0.099 ± 0.048
